Assay results reported in IntAct's records for PubMed 26824392.

Target: rab8a_human RAB8A (UniProt P61006)
Sequence (P61006 whole entry): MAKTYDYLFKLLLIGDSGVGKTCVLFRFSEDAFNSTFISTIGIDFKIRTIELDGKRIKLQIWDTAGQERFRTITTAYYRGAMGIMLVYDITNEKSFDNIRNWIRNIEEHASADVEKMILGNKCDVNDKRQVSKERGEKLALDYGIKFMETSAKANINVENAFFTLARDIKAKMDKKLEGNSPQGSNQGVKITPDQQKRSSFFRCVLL

effect of a mutation on the interaction: with no effect
Substance: Leucine-rich repeat serine/threonine-protein kinase 2 (Homo sapiens), Q5S007 R1441C
